Reference: the supplement of paper PMC10126150
± gives the standard deviation of the averaged measurements.

Tested on: ATP
Assay: switch fluorescence ratio, 500 uM ATP over buffer (Cy3 cluster intensity, sum of 5 cycles each) (fold (ratio)); higher = stronger signal-on switching upon ATP binding; sequences stand for … in TCGTCGGCAGCGTCAGATGTGTATAAGAGACAGTTTTTTTTTTTTTTTTTTTTTTTTT…TC
Settings: aptamer strand: ATP DNA aptamer (quencher-CACCTGGGGGAGTATTGCGGAGGAAGG + anchor), 100 nM annealed; ATP concentration: 500 uM
Procedure, shortened: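 Five buffer/ATP imaging cycles were run on Cy3-labelled switching-strand clusters on a modified Illumina MiSeq flow-cell, with NaOH stripping and re-annealing between cycles. In each cycle, clusters annealed to 100 nM quencher-labelled ATP aptamer were imaged in selection buffer, then after 15 min with 500 uM ATP at 22 °C. Per cluster, the fluorescence ratio is summed target-cycle over summed buffer-cycle Cy3 intensity, averaged per switch-domain sequence. Only clusters within 100-1000 RFU were kept.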
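Note: ATP exposure 15 min at 22 °C before imaging.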

Sequence	switch fluorescence ratio
GGGGTATGGC	1.03 ± 0.023
GGGTATTGGT	0.996 ± 0.025
TTCGGGTTGG	1.02 ± 0.015
GAGTCGTGTG	1.04 ± 0.024
TTTACCAGGG	1.13 ± 0.085
TCGGGGTCTT	0.9941 ± 0.0029
GAGTTTTGAG	1 ± 0.011
CGTGTAATGG	1.042 ± 0.0015
GTGCTAACGG	0.9633 ± 0.0069
TTGAGGGGTG	0.996 ± 0.037
GTGAGTAAGG	0.9778 ± 0.00085
TTTTGGCGCT	1.005 ± 0.008
AAATGTTACA	1.06 ± 0.021
CCCTGTAGGA	1.04 ± 0.088
TTAGCATATT	1.01 ± 0.021
GACGTCAGAT	0.9767 ± 0.0018
GTTGAATGAC	1.04 ± 0.0083
AGTAGCGATT	1.06 ± 0.031
GGGGGAGGTA	0.977 ± 0.031
CGGGGGCATA	1 ± 0.029
AGTGGGGATC	1.03 ± 0.035
GCTAACCGTA	1.04 ± 0.023
CATGGTTGG	1.01 ± 0.051

Sequence	switch fluorescence ratio
CGATCGGCTG	0.993 ± 0.019
ATTGTGATTG	0.997 ± 0.038
GCTTGTTGTT	0.995 ± 0.017
GTTCCTGCGG	1.075 ± 0.01
CGTTGGGGT	0.986 ± 0.019
ATTGGAGGCT	0.971 ± 0.075
TCTAAGTCGG	0.987 ± 0.015
CAACGGGTTT	0.997 ± 0.051
CATTTGCCTT	1.03 ± 0.035
CGTATCCGTA	0.987 ± 0.042
GGTTTTGAGG	0.973 ± 0.011
TTAAATCTCG	0.989 ± 0.046
CGTCACATGT	1.009 ± 0.0048
GGGATATGGG	0.995 ± 0.045
GGTGCTTAGG	1.02 ± 0.024
TTACTTTTTT	1.02 ± 0.033
TAGGTGTTAT	1.02 ± 0.037
GACTACGTTT	1.02 ± 0.013
AAGCGAAAAA	1.01 ± 0.092
AAACTAGCGG	1.02 ± 0.016
GGCTCAGAGA	1.004 ± 0.0045
GTGGCACCTA	0.988 ± 0.018
TTGAAATTTT	1.001 ± 0.0077

Sequence	switch fluorescence ratio
CGGGTCAGTG	0.968 ± 0.04
AAAACAAATA	0.9968 ± 0.0089
GGTGTTGGTG	1.01 ± 0.025
ACGCGGGACA	1.04 ± 0.014
GGGGGTGAAA	0.987 ± 0.011
TTGCTACATA	1.07 ± 0.011
CAGGACGGGT	1.02 ± 0.03
ACTAATGGTT	1.03 ± 0.022
TTTTAAAAGT	1 ± 0.03
ACACTAGGGG	1.23 ± 0.17
ACCCGGGCTT	0.995 ± 0.026
AGCATTGTGG	0.996 ± 0.018
AAAATAGTGT	1.013 ± 0.01
TTCAATCTGT	0.968 ± 0.064
TGGAGTGGGT	1.01 ± 0.011
GACAAGTATT	1.01 ± 0.013
TGCAGGGGTA	1.12 ± 0.2
TATGGGGATT	0.991 ± 0.037
GATTACATGC	1.01 ± 0.037
TGAACGGGCC	1.036 ± 0.00055
GCTGCTGTTG	1.06 ± 0.049
CATAAAATCG	0.9666 ± 0.0091
TGTTCTAGTT	1.01 ± 0.015

Sequence	switch fluorescence ratio
TTCGAACTCG	1.011 ± 0.0043
GGTAAAAAGG	0.971 ± 0.022
TTTGTTCACT	0.989 ± 0.041
TAAGGGGTTA	0.992 ± 0.029
CCCGGGTATG	1.03 ± 0.02
AGGTTCGGAT	0.985 ± 0.056
CGTGCGGGAA	1.004 ± 0.0069
GTTGTTATAG	1.02 ± 0.039
TCACAGGTTT	1.05 ± 0.017
GAGTTTGGG	1 ± 0.02
TCGTTCTGAA	0.974 ± 0.022
TGGGGCTCTA	1.03 ± 0.033
ATCGCGGGGG	1.009 ± 0.0021
CGTGTTGTGG	0.97 ± 0.067
TAAGAGGGTC	0.999 ± 0.041
GTTTGGGGAT	0.972 ± 0.022
AAAAAAGTGC	1.04 ± 0.051
AAGGGGACAG	0.995 ± 0.03
GCGGTCCACG	1.02 ± 0.022
TTGAATGGTC	0.979 ± 0.081
AAAGTGAAGG	0.996 ± 0.027
AGGGTCAAGG	0.971 ± 0.046
AGGGTGCGGG	1.01 ± 0.018

Sequence	switch fluorescence ratio
CAGGACTGGG	1.01 ± 0.0056
CAGAACGTTG	0.983 ± 0.016
TAAAGGCCGT	1.01 ± 0.018
ATGCCAGGGT	0.998 ± 0.031
TTGGTTATAC	1.12 ± 0.046
GGGGTTCTCG	1.001 ± 0.0031
TAGAGGGGG	1.01 ± 0.014
ACTTTAGGGG	1.06 ± 0.044
GAGCTCACGG	1.02 ± 0.017
TTTAGCTTCA	1.099 ± 0.0078
TTAACGGTAG	0.983 ± 0.038
GTTTGGGAGG	0.963 ± 0.01
AGGCTTTGG	0.999 ± 0.051
CAACAACATT	1.07 ± 0.12
GTAAAATGGG	0.997 ± 0.011
CGCTACGTGG	0.99 ± 0.028
GTTTGCTACG	1.005 ± 0.004
TTGACGAGGT	1.07 ± 0.078
TTGTTGGGG	0.994 ± 0.03
TGTACGAGAA	1.003 ± 0.0035
AGCTGAAGTG	0.972 ± 0.018
ATTATAGTTG	1.039 ± 0.0094
TAGGCCAGTT	0.996 ± 0.011

Sequence	switch fluorescence ratio
GCTTTTTTAC	1.38 ± 0.32
AGGAGTGTCA	0.965 ± 0.013
TGGGACAGGC	0.965 ± 0.089
CTCACCATGA	1.03 ± 0.035
ATATTGGAAT	1.02 ± 0.024
GGCAGAAATG	0.994 ± 0.011
TTGTTCTAAC	1.0276 ± 0.00054
CAAGGGTATG	1.03 ± 0.046
ACAAATTGCC	1.031 ± 0.0017
TTCGGGGGAT	1.01 ± 0.02
ACGATGAGGA	0.982 ± 0.07
AATGATATGA	1.02 ± 0.05
GGCGTCAGGA	1.01 ± 0.027
GGTTATAGGA	0.99 ± 0.036
CAAAAAAGGG	1.02 ± 0.021
GCATCAATTT	1.016 ± 0.0012
AATACCGTT	0.968 ± 0.055
GGAGTTCAGG	0.9905 ± 0.0024
ACGGGCTGTG	1.01 ± 0.054
TGAAACGCTG	1.06 ± 0.04
GGGAAAGGAA	0.989 ± 0.018
ACTAACTAAT	1.06 ± 0.056
GCTAGGGGAA	0.985 ± 0.031

Sequence	switch fluorescence ratio
TTTAGATATT	0.98873 ± 0.00041
GGGTAAGGGT	1.13 ± 0.37
ATGCAATCTT	1.11 ± 0.06
CCTCAGGGAA	1.2 ± 0.14
GGTGAAGTGC	0.992 ± 0.068
TTATCGGGGT	1.019 ± 0.008
TTTGTATGGA	0.973 ± 0.011
GTGGGGATCC	1.025 ± 0.0046
ATATCATGTT	0.995 ± 0.036
CCGTCAAGAG	4.35 ± 0.16
TGGAAGTCGG	0.984 ± 0.022
ATTCCTTGGT	1.03 ± 0.022
TTACGGAAT	1.1 ± 0.14
TTGGCATTTG	1.02 ± 0.064
GGATGGGAGG	1.046 ± 0.0092
TGTGTGGGTC	0.991 ± 0.028
CTGAGGGGT	1.05 ± 0.037
AGTAAGATGT	0.976 ± 0.034
TCCATGACCC	1.01 ± 0.015
